Experimental data published in patent publication EP4796130A1, “ANTI-TISSUE FACTOR ANTIBODY-DRUG CONJUGATE COMPRISING CAMPTOTHECIN DERIVATIVE” (Celltrion, Inc., priority 2023, dated 2025).

Test system: HPAFII (human pancreatic cancer xenograft model)
Experiment: In vivo antitumor efficacy, HPAFII xenograft model
Parameters: species or system CB17 SCID mice
Conditions: 3 mg/kg i.v. QW × 3

B1: Isotype-MMAE: ADC in which anti-influenza A antibody (Navivumab, P23) is conjugated with MMAE (MC-vc-PAB-MMAE); DAR 4 (conjugate, chains of the INN, looked up)
VH: QVQLVQSGAEVKKPGASVKVSCKTSGYSFSTYGVSWVRQAPGQGPEWVGWISAYTGITDYAQKFQGRVTLTTDATTATAFLDLRSLRPDDTATYFCARDKVQGRVEVGSGGRHDYWGQGTLVIVSS
VL: EVVLTQSPGTLALPPGERATLSCRASHRVGSTYIAWYQQKSGQAPRRLIYGASNRATDIPDRFSGSGSGTDFTLTIRRLEPEDSAVYYCQQFSVSPWTFGQGTRVEIK
modifications: mc-vc-PAB-MMAE payload, DAR 4
- Tumor Volume (day 0, mean ± SEM): 235 ± 17 mm^3
- Tumor Volume (day 4, mean ± SEM): 357 ± 38 mm^3
- Tumor Volume (day 7, mean ± SEM): 424 ± 46 mm^3
- Tumor Volume (day 11, mean ± SEM): 603 ± 79 mm^3
- Tumor Volume (day 14, mean ± SEM): 799 ± 98 mm^3
- Tumor Volume (day 28, mean ± SEM): 2,142 ± 164 mm^3
- T/Cweight (day 28 vs control group G1): 90.45%
- TGI (day 28 vs control group G1): 10.01%
- Tumor Weights on Day 28 (mean ± SEM): 1.933 ± 0.177 g
- T/C (tumor volume on day 28 vs control group G1): 90.99%
